Test results published in patent publication US20260049138A1 (Chugai, published 2026).
Numbering of substitutions follows the chain as printed. Numbers in names are those of the source.

B1: CE115HA000 D73A one-arm antibody (antibody, human IgG1, kappa, L234A L235A, N297A, name in Kabat numbering)
heavy: QVQLVESGGGVVQPGRSLRLSCAASGFTFSNAWMHWVRQAPGKGLEWVAQIKAKSNNYATYYAESVKGRFTISRDASKNSLYLQMNSLKTEDTAVYYCRYVHYGAYYGVDAWGQGTTVTVSSASTKGPSVFPLAPSSKSTSGGTAALGCLVKDYFPEPVTVSWNSGALTSGVHTFPAVLQSSGLYSLSSVVTVPSSSLGTQTYICNVNHKPSNTKVDKKVEPKSCDKTHTCPPCPAPEAAGGPSVFLFPPKPKDTLMISRTPEVTCVVVDVSHEDPEVKFNWYVDGVEVHNAKTKPREEQYASTYRVVSVLTVLHQDWLNGKEYKCKVSNKALPAPIEKTISKAKGQPREPQVYTLPPSRCELTKNQVSLSCAVKGFYPSDIAVEWESNGQPENNYKTTPPVLDSDGSFFLVSKLTVDKSRWQQGNVFSCSVMHEALHNHYTQKSLSLSPDYKDDDDK
chain: EPKSSDKTHTCPPCPAPELLGGPSVFLFPPKPKDTLMISRTPEVTCVVVDVSHEDPEVKFNWYVDGVEVHNAKTKPREEQYNSTYRVVSVLTVLHQDWLNGKEYKCKVSNKALPAPIEKTISKAKGQPREPQVCTLPPSRDELTKNQVSLWCLVKGFYPSDIAVEWESNGQPENNYKTTPPVLDSDGSFFLYSKLTVDKSRWQQGNVFSCSVMHEALHNRYTQKSLSLSP
light: DIVMTQSPLSLPVTPGEPASISCRSSQSLVHSNRNTYLHWYQQKPGQAPRLLIYKVSNRFSGVPDRFSGSGSGTDFTLKISRVEAEDVGVYYCGQGTQVPYTFGQGTKLEIKRTVAAPSVFIFPPSDEQLKSGTASVVCLLNNFYPREAKVQWKVDNALQSGNSQESVTEQDSKDSTYSLSSTLTLSKADYEKHKVYACEVTHQGLSSPVTKSFNRGEC
B2: CE115HA000 D73R one-arm antibody (antibody, human IgG1, kappa, L234A L235A, N297A, name in Kabat numbering)
heavy: B1 heavy with A76R
chain: B1 chain
light: B1 light
B3: CE115HA000 D73N one-arm antibody (antibody, human IgG1, kappa, L234A L235A, N297A, name in Kabat numbering)
heavy: B1 heavy with A76N
chain: B1 chain
light: B1 light
B4: CE115HA000 D101F one-arm antibody (antibody, human IgG1, kappa, L234A L235A, N297A, name in Kabat numbering)
heavy: B1 heavy with A76D, D110F
chain: B1 chain
light: B1 light
B5: CE115HA000 D73G one-arm antibody (antibody, human IgG1, kappa, L234A L235A, N297A, name in Kabat numbering)
heavy: B1 heavy with A76G
chain: B1 chain
light: B1 light
B6: CE115HA000 D73E one-arm antibody (antibody, human IgG1, kappa, L234A L235A, N297A, name in Kabat numbering)
heavy: B1 heavy with A76E
chain: B1 chain
light: B1 light
B7: CE115HA000 D73K one-arm antibody (antibody, human IgG1, kappa, L234A L235A, N297A, name in Kabat numbering)
heavy: B1 heavy with A76K
chain: B1 chain
light: B1 light
B8: CE115HA000 D101A one-arm antibody (antibody, human IgG1, kappa, L234A L235A, N297A, name in Kabat numbering)
heavy: B1 heavy with A76D, D110A
chain: B1 chain
light: B1 light
B9: CE115HA000 D101G one-arm antibody (antibody, human IgG1, kappa, L234A L235A, N297A, name in Kabat numbering)
heavy: B1 heavy with A76D, D110G
chain: B1 chain
light: B1 light
B10: CE115HA000 D73T one-arm antibody (antibody, human IgG1, kappa, L234A L235A, N297A, name in Kabat numbering)
heavy: B1 heavy with A76T
chain: B1 chain
light: B1 light

Biological target: T1, CD3ε homodimer protein (human, UniProt P07766 23-126, limits assumed, sulfo-tag or biotin label in the ECL assays; amine-coupled to the chip in SPR)
T1 construct: also called human CD3ε homodimer protein; CD3 (CD3ε)
T1 sequence (P07766 23-126 limits assumed): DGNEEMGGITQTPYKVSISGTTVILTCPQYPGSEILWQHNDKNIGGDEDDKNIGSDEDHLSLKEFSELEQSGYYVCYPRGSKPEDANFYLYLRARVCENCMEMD
Assay: SPR Biacore T200; CD3ε homodimer on CM4 chip;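 also: Single-residue variant antibodies injected as analyte over CD3ε homodimer immobilized by amine coupling, run at 25 °C in HBS-EP+ buffer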

| Binder | ratio of amounts bound Z=Y/X (altered form / CE115HA000) |
| --- | --- |
| B1 | 0.83 |
| B2 | 1.04 |
| B3 | 0.94 |
| B4 | 0.75 |
| B5 | 1.07 |
| B6 | 0.73 |
| B7 | 0.87 |
| B8 | 1.26 |
| B9 | 1.38 |
| B10 | 0.63 |
